Assay results as given in patent US20190359712A1 (Daiichi Sankyo, published 2019).
Each block holds one binder with its values, some of them ahead of it.

Columns and labels:
[1] = molecular target: T1, cynomolgus monkey CD3 on cynomolgus monkey PBMC or T cell line HSC-F (cynomolgus monkey, UniProt Q95LI5 22-198); experiment: flow cytometry on cynomolgus monkey PBMC
T1 construct: whole, on cells; Native CD3 complex on monkey T cells; also called cynomolgus monkey CD3 (PBMC); cynomolgus monkey CD3 antigen
T1 sequence (Q95LI5 22-198): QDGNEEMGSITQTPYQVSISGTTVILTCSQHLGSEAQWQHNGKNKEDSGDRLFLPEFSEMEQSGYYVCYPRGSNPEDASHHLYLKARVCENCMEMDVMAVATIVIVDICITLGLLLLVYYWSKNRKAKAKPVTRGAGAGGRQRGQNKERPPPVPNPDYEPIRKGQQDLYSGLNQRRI

human CD3 on human PBMC [2] = molecular target: T2, human CD3 on human PBMC (human, UniProt P07766 23-207); experiment: flow cytometry on human PBMC, Penta-His Alexa Fluor 488 detection (rMFI)
T2 construct: Native CD3 complex on T cells in PBMC; the other chains of the complex are native; also called human CD3 (PBMC)
Description: Commercially available human PBMC (Cellular Technology Ltd. (CTL)) was adjusted to an appropriate concentration with PBS containing 5% FBS. LIVE/DEAD Fixable Near-IR Dead Cell Stain Kit (Thermo Fisher Scientific Inc.) and an anti-CD19 antibody (Beckman Coulter Inc.) were added to the cells, which were then left standing at 4° C. for 30 minutes. The cells were washed twice with PBS containing 5% FBS, then adjusted to a concentration of 1×10⁶ cells/mL with PBS containing 5% FBS, added at a concentration of 100 μL/well to a 96-well U-bottomed microplate, and centrifuged to remove a supernatant. […] The cells were washed twice with PBS containing 5% FBS. Then, Penta-His Alexa Fluor 488 (Qiagen N.V.) diluted with PBS containing 5% FBS was added at a concentration of 30 μL/well, and the plate was left standing at 4° C. for 30 minutes. The cells were washed twice with PBS containing 5% FBS and then resuspended in PBS containing 5% FBS, followed by detection using a flow cytometer (FACSCanto™ II; Becton, Dickinson and Company). The data was analyzed using Flowjo (Tree Star Inc.). The mean fluorescence intensity (MFI) of Alexa Fluor 488 in a fraction free of dead cells and CD19-positive cells was calculated. The MFI value of the scFv-unsupplemented sample was subtracted from the MFI value of the scFv-supplemented sample to calculate a relative value of MFI (rMFI).

[3] = molecular target: T3, human CD3εγ single-chain antigen (human); experiment: complex mixed at a molar ratio of 1:2, purified by gel filtration and crystallized
T3 construct: also called scCD3εγ; His-scCD3 antigen
T3 chain: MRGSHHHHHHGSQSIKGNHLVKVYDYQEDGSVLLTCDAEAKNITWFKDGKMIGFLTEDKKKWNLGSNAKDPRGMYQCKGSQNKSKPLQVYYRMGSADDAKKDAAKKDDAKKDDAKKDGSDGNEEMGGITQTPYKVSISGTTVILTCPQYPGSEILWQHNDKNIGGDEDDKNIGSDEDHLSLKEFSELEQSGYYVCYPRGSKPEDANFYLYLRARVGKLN
Description: The buffer solution was replaced with 10 mM Tris HCl (pH 7.5) and 50 mM NaCl using Amicon Ultra 15 MWCO 10K (Merck Millipore), and the resulting solution was concentrated to 3.5 mg/mL. This concentrate was purified by gel filtration chromatography using Superdex 200 10/300GL (GE Healthcare Bio-Sciences Corp.). A fraction of the complex was concentrated into approximately 4.0 mg/mL using Amicon Ultra 15 MWCO 10K (Millipore).
To 0.5 μL of the protein solution, an equal amount of a precipitant solution (0.1 M MES monohydrate (pH 6.5), 1.6 M ammonium sulfate, and 10% v/v 1,4-dioxane) was added, and the resulting solution was placed in a sealed container containing 0.05 mL of a precipitant solution so that the solutions had no contact with each other. The container was left standing at 25° C. One month later, 0.1 mm×0.05 mm×0.05 mm rod-like crystals were obtained.

[4] = molecular target: T4, CD3 immobilized on a sensor chip (Example 7)-1-2); experiment: SPR (BIAcore T-200), CD3 immobilized, scFv injected at five concentrations; concentration giving 1/2 Rmax
T4 construct: the text says only 'CD3 immobilized on a sensor chip'; also called human CD3
Description: Five different concentrations of the scFv were injected into CD3 immobilized on a sensor chip. Rmax was estimated from the resulting response, and the antibody concentration that reached 1/2 thereof was defined as the dissociation constant of the scFv for CD3.

[5] = molecular target: T5, human TROP2 on FaDu and HPAF-II cells (human, UniProt P09758 27-323); experiment: flow cytometry on FaDu and HPAF-II cells, Penta-His Alexa Fluor 488 detection (rMFI)
T5 construct: whole, on cells
T5 sequence (looked up): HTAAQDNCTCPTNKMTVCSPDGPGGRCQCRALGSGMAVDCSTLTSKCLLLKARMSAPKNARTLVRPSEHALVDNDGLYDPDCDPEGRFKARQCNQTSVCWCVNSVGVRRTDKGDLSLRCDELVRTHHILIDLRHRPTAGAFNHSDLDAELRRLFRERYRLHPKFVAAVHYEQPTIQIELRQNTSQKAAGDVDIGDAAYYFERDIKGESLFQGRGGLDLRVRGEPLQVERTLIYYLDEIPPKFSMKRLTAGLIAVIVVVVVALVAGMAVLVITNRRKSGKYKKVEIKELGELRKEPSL
Description: The cells were washed twice with PBS containing 5% FBS, then adjusted to a concentration of 1×10⁶ cells/mL with PBS containing 5% FBS, added at a concentration of 100 μL/well to a 96-well U-bottomed microplate, and centrifuged to remove a supernatant. […] The cells were washed twice with PBS containing 5% FBS.

[6] = molecular target: T1, cynomolgus monkey CD3 on cynomolgus …; experiment: flow cytometry, hybridoma supernatant on cynomolgus monkey T cell line HSC-F
Description: A cynomolgus monkey T cell line HSC-F (JCRB Cell Bank, No. JCRB1164) was adjusted to a concentration of 5×10⁶ cells/mL in an RPMI1640 medium containing FBS and added at a concentration of 100 μL/well to a 96-well plate. […] Then, the supernatant was removed, and the cells in the wells were washed once with PBS containing 5% FBS, then suspended by the addition of Anti-Rat IgG FITC conjugate diluted 500-fold with PBS containing 5% FBS, and left standing at 4° C. for 1 hour. The cells were washed three times with PBS containing 5% FBS and then resuspended in PBS containing 5% FBS and 2 μg/ml 7-aminoactinomycin D, followed by detection using a flow cytometer. The data was analyzed using Flowjo. After removal of 7-aminoactinomycin D-positive dead cells by gating, the FITC fluorescence intensity of live cells was plotted to a histogram.

[7] = molecular target: T6, human CD3εδ expressed on transfected Lenti-X293T cells (human, UniProt P07766 23-207; P04234 22-171); experiment: flow cytometry, hybridoma supernatant on hCD3ε/hCD3δ-transfected Lenti-X293T cells
T6 construct: Cells co-transfected with hCD3ε-pcDNA3.1 and hCD3δ-pcDNA3.1
Description: On the next day, hCD3ε-pcDNA3.1 and hCD3δ-pcDNA3.1 or a control pcDNA3.1-DEST was transfected to the Lenti-X293T cells using Lipofectamine 2000, and the cells were further cultured overnight at 37° C. under 5% CO₂ conditions. On the next day, the expression vector-transfected Lenti-X293T cells were treated with TrypLE Express (Thermo Fisher Scientific Inc.), washed with DMEM containing 10% FBS, and then adjusted to a concentration of 5×10⁶ cells/mL in PBS containing 5% FBS. The resulting cell suspension was used in flow cytometry analysis.
The hCD3δ-pcDNA3.1- and hCD3δ-pcDNA3.1-transfected Lenti-X293T cells or the pcDNA3.1-DEST-transfected Lenti-X293T cells were suspended by the addition of the hybridoma culture supernatant and left standing at 4° C. for 1 hour. The cells were washed once with PBS containing 5% FBS, then suspended by the addition of Anti-Rat IgG FITC conjugate (Sigma-Aldrich Corp.) diluted 500-fold with PBS containing 5% FBS, and left standing at 4° C. for 30 minutes. The cells were washed twice with PBS containing 5% FBS and then resuspended in PBS containing 5% FBS and 2 μg/ml 7-aminoactinomycin D (Molecular Probes, Inc.), followed by detection using a flow cytometer. The data was analyzed using Flowjo. After removal of 7-aminoactinomycin D-positive dead cells by gating, the FITC fluorescence intensity of live cells was plotted to a histogram.

[8] = molecular target: T5, human TROP2 on FaDu and HPAF-II cells; experiment: flow cytometry on HPAF-II cells, Penta-His Alexa Fluor 488 detection, rMFI
[9] = molecular target: T1, cynomolgus monkey CD3 on cynomolgus …; experiment: flow cytometry on cynomolgus monkey PBMC, Penta-His Alexa Fluor 488 detection, rMFI
[10] = molecular target: T7, recombinant human TROP-2/human IgG Fc fused form (R&D Systems, Inc.) (human, UniProt P09758 27-274, limits assumed); experiment: SPR (BIAcore 3000), TROP-2/Fc captured on anti-human IgG(Fc), bispecific as analyte, 1:1 binding model
T7 construct: Bought reagent; also called TROP-2/Fc; not shown: human IgG Fc
T7 sequence (looked up): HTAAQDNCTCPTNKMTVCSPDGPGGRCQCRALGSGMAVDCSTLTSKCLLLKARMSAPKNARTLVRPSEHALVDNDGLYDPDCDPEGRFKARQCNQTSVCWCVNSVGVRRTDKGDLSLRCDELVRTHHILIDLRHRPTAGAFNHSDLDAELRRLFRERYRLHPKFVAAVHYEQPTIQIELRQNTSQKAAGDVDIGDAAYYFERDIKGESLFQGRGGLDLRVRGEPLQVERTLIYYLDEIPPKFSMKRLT
Description: The bispecific molecule was assayed for its binding to TROP2 using BIAcore 3000 (GE Healthcare Bio-Sciences Corp.) by the capture method, which involves capturing the antigen by an anti-human IgG antibody and assaying the bispecific molecule as an analyte. The antigen used was recombinant human TROP-2/human IgG Fc fused form (R&D Systems, Inc.). Approximately 2000 RU of the anti-human IgG(Fc) antibody (Human Antibody Capture Kit, GE Healthcare Bio-Sciences Corp.) was covalently bound to a sensor chip CM5 (GE Healthcare Bio-Sciences Corp.) by the amine coupling method. Similarly, this antibody was immobilized onto a reference cell. The running buffer used was HBS-P (10 mM HEPES (pH 7.4), 0.15 M NaCl, and 0.005% Surfactant P20). The bispecific molecule was prepared at a 2-fold dilution ratio from 200 nM to 1 nM. A 1 μg/ml solution of the antigen was added onto the anti-human IgG(Fc) antibody-immobilized chip for approximately […]. Then, each concentration of the bispecific molecule was added at a flow rate of 30 μl/min for 300 seconds. Subsequently, the dissociation phase was monitored for 600 seconds. A 3 M magnesium chloride solution was added as a regenerating solution for 30 seconds. The data was analyzed using the 1:1 binding model of analytical software (BIAevaluation software, version 4.1.1) to calculate an association rate constant (ka), a dissociation rate constant (kd), and a dissociation constant (KD; KD=kd/ka).

human CD3 on human PBMC [11] = molecular target: T2, human CD3 on human PBMC; experiment: flow cytometry on human PBMC (dead cells and CD19-positive cells excluded), Penta-His Alexa Fluor 488 detection, rMFI
[12] = molecular target: T3, human CD3εγ single-chain antigen; experiment: SPR (BIAcore 3000), human CD3εγ single-chain antigen immobilized, bispecific as analyte; KD from the amount bound at each concentration
Description: The bispecific molecule was assayed for its binding to the CD3εγ antigen using BIAcore 3000 (GE Healthcare Bio-Sciences Corp.) by a method which involves immobilizing the antigen and assaying the antibody as an analyte. […] Approximately 100 RU of the antigen was covalently bound to a sensor chip CM5 (GE Healthcare Bio-Sciences Corp.) by the amine coupling method. Immobilization treatment was performed without the addition of an antigenic protein as a reference cell. […] The bispecific molecule was prepared at a 2-fold dilution ratio from 1 μM (highest concentration) to 4 nM or at a 2-fold dilution ration from 200 nM to 1 nM. Each concentration of the bispecific molecule was added to the antigen-immobilized chip at a flow rate of […] for 25 minutes, and the amount of the bispecific molecule bound thereto was monitored. A 10 mM glycine-hydrochloric acid solution (pH 1.5) was added as a regenerating solution for 30 seconds. The data was analyzed using analytical software (BIAevaluation software, version 4.1.1) to calculate a dissociation constant KD from the amount of the bispecific molecule bound at each concentration.

B1: C3E-7034 (humanized anti-CD3 scFv) (scFv)
scFv: GEVQLVESGGGLVQPGGSLRLSCAASGVTFNYYGMSWIRQAPGKGLEWVASITNSGGRIYYPDSVKGRFTISRENTQKTLYLQMNSLRAEDTAVYYCTLDGRDGWVAYWGQGTLVTVSSGGGGSGGGGSGGGGSNFMLTQPHSVSESPGKTVTISCKRNTGNIGSNYVNWYQQHEGSSPTTIIYRDDKRPDGVSDRFSGSIDRSSKSASLTISNLKTEDEADYFCQSYSSGFIFGGGTKLTVLGAAAGAGGDYKDDDDKGAAAHHHHHH
binding result [1]: binds
binding result (human CD3 on human PBMC [2]): binds
binding result [3]: binds
Kd [4]: 4.5 nM

B4: T2C-0005 (HT1-11 scFv/C3E-7035 bispecific molecule) (bispecific antibody)
chain: GQVQLVQSGAEVKKPGASVKVSCKASGYTFTTAGMQWVRQAPGQGLEWMGWINTHSGVPKYAEDFKGRVTISADTSTSTAYLQLSSLKSEDTAVYYCARSGFGSSYWYFDVWGQGTLVTVSSGGGGSGGGGSGGGGSDIQMTQSPSSLSASVGDRVTITCKASQDVSTAVAWYQQKPGKAPKLLIYSASYRYTGVPSRFSGSGSGTDFTLTISSLQPEDFAVYYCQQHYITPLTFGQGTKLEIKRTGGGGSEVQLVESGGGLVQPGGSLRLSCAASGVTFNYYGMSWIRQAPGKGLEWVASITNSGGRIYYPDSVKGRFTISRENTQKTLYLQMNSLRAEDTAVYYCTLDGRDGWVAYWGQGTLVTVSSGGGGSGGGGSGGGGSMAQAVLTQPSSVSGVPGQRVTISCKRNTGNIGSNYVNWYQQLPGTAPKLLIYRDDKRPSGVPDRFSGSKSGTSASLAITGFQAEDEADYYCQSYSSGFIFGGGTKLTVLGAAAGAGGDYKDDDDKGAAAHHHHHH
notes: Tandem scFv; also called anti-TROP2-CD3 bispecific molecule
EC50 (read off the curve) [8]: ~10 nM
binding result [9]: binds
Kd [10]: 11.9 nM
EC50 (read off the curve) (human CD3 on human PBMC [11]): ~10 nM
Kd [12]: 126 nM

Next, values leading:

binding result [5]: binds
B2: HT1-11 scFv (humanized anti-TROP2 scFv) (scFv)
scFv: QVQLVQSGAEVKKPGASVKVSCKASGYTFTTAGMQWVRQAPGQGLEWMGWINTHSGVPKYAEDFKGRVTISADTSTSTAYLQLSSLKSEDTAVYYCARSGFGSSYWYFDVWGQGTLVTVSSGGGGSGGGGSGGGGSDIQMTQSPSSLSASVGDRVTITCKASQDVSTAVAWYQQKPGKAPKLLIYSASYRYTGVPSRFSGSGSGTDFTLTISSLQPEDFAVYYCQQHYITPLTFGQGTKLEIKRTGAAAHHHHHH
notes: The scFv was detected through its His tag

binding result [6]: binds
binding result [7]: binds
B3: rat anti-CD3 monoclonal antibody C3-147 (antibody, IgG2b, V domains shown)
VH: EVQLVESGGGLVQPGRALKLSCVVSGVTFNYYGMSWIRQAPGKGLEWVASITNSGGRIYYPDSVKGRFTISRENTQKTLYLQMNSLRSEDTATYYCTLDGRDGWVAYWGQGTLVTVSS
VL: QFVLTQPNSVSTNLGTTVELSCKRNTGNIGSNYVNWYQQHEGRSPTTIIYRDDKRPDGVSDRFSGSIDRSSKSALLTINNVQTEDEADYFCQSYSSGFIFGGGTKLTVL
notes: probably lambda; also called rat anti-human CD3 antibody

binding result [9]: binds
Kd [10]: 12.8 nM
EC50 (read off the curve) (human CD3 on human PBMC [11]): ~1 nM
Kd [12]: 13.9 nM
B5: T2C-0001 (HT1-11 scFv/C3E-7034 bispecific molecule) (bispecific antibody)
chain: GQVQLVQSGAEVKKPGASVKVSCKASGYTFTTAGMQWVRQAPGQGLEWMGWINTHSGVPKYAEDFKGRVTISADTSTSTAYLQLSSLKSEDTAVYYCARSGFGSSYWYFDVWGQGTLVTVSSGGGGSGGGGSGGGGSDIQMTQSPSSLSASVGDRVTITCKASQDVSTAVAWYQQKPGKAPKLLIYSASYRYTGVPSRFSGSGSGTDFTLTISSLQPEDFAVYYCQQHYITPLTFGQGTKLEIKRTGGGGSEVQLVESGGGLVQPGGSLRLSCAASGVTFNYYGMSWIRQAPGKGLEWVASITNSGGRIYYPDSVKGRFTISRENTQKTLYLQMNSLRAEDTAVYYCTLDGRDGWVAYWGQGTLVTVSSGGGGSGGGGSGGGGSNFMLTQPHSVSESPGKTVTISCKRNTGNIGSNYVNWYQQHEGSSPTTIIYRDDKRPDGVSDRFSGSIDRSSKSASLTISNLKTEDEADYFCQSYSSGFIFGGGTKLTVLGAAAGAGGDYKDDDDKGAAAHHHHHH
notes: as for B4
